{"source": "paper PMC2816702", "about": "(PLoS ONE, 2010)", "key": {"[1]": {"target": "Recombinant major apple allergen Mal d 1 (apple) (UniProt P43211)", "assay": "native MS; ESI FT-ICR, direct infusion, 10 mM ammonium acetate pH 6.9, allergen (monomer) concentration 9 µM"}, "[2]": {"target": "Recombinant major celery allergen Api g 1 (celery)", "assay": "native MS; ESI FT-ICR, direct infusion, 10 mM ammonium acetate pH 6.9, allergen (monomer) concentration 10 µM"}, "[3]": {"target": "Recombinant birch pollen profilin Bet v 2 (birch)", "assay": "native MS; ESI FT-ICR, direct infusion, 10 mM ammonium acetate pH 6.9, allergen (monomer) concentration 40 µM"}, "[4]": {"target": "the molecule itself", "assay": "native MS; ESI FT-ICR, direct infusion, 10 mM ammonium acetate pH 6.9, allergen (monomer) concentration 8 µM"}, "[5]": {"target": "the molecule itself", "assay": "native MS; ESI FT-ICR, direct infusion, 10 mM ammonium acetate pH 6.9, allergen (monomer) concentration 10 µM"}, "[6]": {"target": "the molecule itself", "assay": "native MS"}, "[7]": {"target": "T1, Recombinant birch pollen allergen Bet v 1a (birch), P15494", "T1 chain": "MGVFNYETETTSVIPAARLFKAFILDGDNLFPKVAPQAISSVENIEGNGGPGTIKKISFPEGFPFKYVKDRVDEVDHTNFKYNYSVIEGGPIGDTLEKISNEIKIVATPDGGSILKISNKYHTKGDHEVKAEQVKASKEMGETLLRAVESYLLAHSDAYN", "assay": "native MS; ESI FT-ICR, direct infusion, 10 mM ammonium acetate pH 6.9, allergen (monomer) concentration 40 µM", "conditions": "remark: other sources report otherwise"}}, "note": "Where “and” joins values, the source holds several entries; their conditions need not be identical. Equal values may be shown once.", "data": [{"molecule": "Recombinant major apple allergen Mal d 1 (from UniProt P43211 1-159) (natural protein)", "values": [{"measurement": "stoichiometry N", "setting": "[1]", "result": 2}]}, {"molecule": "Recombinant major celery allergen Api g 1 (natural protein)", "values": [{"measurement": "stoichiometry N", "setting": "[2]", "result": 2}]}, {"molecule": "Recombinant birch pollen profilin Bet v 2 (natural protein)", "values": [{"measurement": "stoichiometry N", "setting": "[3]", "result": "2 and 3 and 4"}]}, {"molecule": "Recombinant Alternaria alternata allergen Alt a 1 (natural protein, source: bought: Biomay AG (recombinant)) APLESRQDTASCPVTTEGDYVWKISEFYGRKPEGTYYNSLGFNIKATNGGTLDFTCSAQADKLEDHKWYSCGENSFMDFSFDSDRSGLLLKQKVSDDITYVATATLPNYCRAGGNGPKDFVCQGVADAYITLVTLPKSS", "values": [{"measurement": "stoichiometry N", "setting": "[4]", "result": 2}]}, {"molecule": "Recombinant rubber tree allergen Hev b 8 (natural protein) SWQTYVDDHLMCDIDGHRLTAAAIIGHDGSVWAQSSSFPQFKSDEVAAVMKDFDEPGSLAPTGLHLGGTKYMVIQGEPGAVIRGKKGSGGITVKKTGQALIIGIYDEPLTPGQCNMIVERLGDYLLDQGL", "values": [{"measurement": "stoichiometry N", "setting": "[5]", "result": 2}]}, {"molecule": "Bos d 5 variant A (in native Bos d 5) (natural protein) LIVTQTMKGLDIQKVAGTWYSLAMAASDISLLDAQSAPLRVYVEELKPTPEGDLEILLQKWENDECAQKKIIAEKTKIPAVFKIDALNENKVLVLDTDYKKYLLFCMENSAEPEQSLVCQCLVRTPEVDDEALEKFDKALKALPMHIRLSFNPTQLEEQCHI", "values": [{"measurement": "abundance ratio among the dimeric species", "setting": "[6]", "result": 18, "unit": "%"}]}, {"molecule": "Recombinant timothy pollen allergen Phl p 6 (natural protein, UniProt P43215 23-132, looked up, source: bought: Biomay AG (recombinant)) GKATTEEQKLIEDVNASFRAAMATTANVPPADKYKTFEAAFTVSSKRNLADAVSKAPQLVPKLDEVYNAAYNAADHAAPEDKYEAFVLHFSEALRIIAGTPEVHAVKPGA", "values": [{"measurement": "stoichiometry N", "setting": "[5]", "result": "2 and 3"}]}, {"molecule": "Recombinant birch pollen allergen Bet v 1a, P15494 1-160 (natural protein) MGVFNYETETTSVIPAARLFKAFILDGDNLFPKVAPQAISSVENIEGNGGPGTIKKISFPEGFPFKYVKDRVDEVDHTNFKYNYSVIEGGPIGDTLEKISNEIKIVATPDGGSILKISNKYHTKGDHEVKAEQVKASKEMGETLLRAVESYLLAHSDAYN", "values": [{"measurement": "stoichiometry N", "setting": "[7]", "result": 2}]}]}
